Columns and labels:
gel-filtered platelets [1] = assay: Intracellular platelet cyclic GMP (radioimmunoassay); type: cell-based, human
Procedure: (§1) Venous blood, anticoagulated with 1-mM trisodium citrate, was obtained from volunteers who had not consumed acetylsalicylic acid for at least ten days. Platelet-rich plasma (PRP) was prepared by centrifugation at 150 g for ten minutes at 25° C. Platelet counts were determined with a Coulter counter (model ZM; Coulter Electronics, Hialeah, Fla.).
(§2) Platelets were gel-filtered on a 4× 10 cm column of Sepharose 2B in Tyrode's Hepes buffer as described previously (Hawiger et al., Nature 2831:195–198 (1980), herein incorporated by reference). Platelets were typically suspended at a concentration of 1.5×10^8/ml and were used within 30 minutes of preparation. Platelet aggregation was monitored using a standard nephelometric technique (Born, et al., J. Physiol. 168:178–195 (1963), herein incorporated by reference), in which 0.3-ml aliquots of gel-filtered platelets were incubated at 37° C. and stirred at 1000 rpm in a PAP-4 aggregometer (Biodata, Hatboro, Pa.). Gel-filtered platelets were preincubated with t-PA or S—NO-t-PA for up to 45 minutes and aggregations induced with 5 μM ADP or 0.025 U/ml thrombin.
The antiplatelet actions of S-nitrosothiols are mediated by cyclic GMP. Measurements of cGMP were performed by radioimmunoassay. Gel-filtered platelets were pre-incubated for 180 seconds with S—NO-t-PA (9 μM), and related controls. […]

gel-filtered platelets [2] = assay: Platelet aggregation (nephelometric aggregometry); type: cell-based, human; settings: 5 μM ADP
Procedure: as §1, §2
Aggregations were quantified by measuring the maximal rate or extent of light transmittance and expressed as a normalized value relative to control aggregations.
The effect of S-nitroso-BSA on platelet aggregation was studied, using a gel-filtered platelet preparation, as previously described (Hawiger et al., Nature 2831:195 (1980)) and suspended at 150,000 platelets/ul in HEPES buffer, pH 7.35. S—NO-BSA was incubated with platelets for ten minutes at 37° C. in a PAP-4 aggregometer (BioData, Hatboro, Pa.), after which aggregations were induced with 5 μM ADP. Aggregations were quantified by measuring the extent of change of light transmittance and expressed as a normalized value relative to control aggregations.

[3] = system: endothelium-denuded rabbit aortic strips; assay: Vessel relaxation bioassay; type: cell-based; settings: for % Relaxation: 150 nM, contraction with 1 μM epinephrine, mean ±S.D., n=4
Procedure: New Zealand White female rabbits weighing 3–4 kg were anesthetized with 30 mg/kg IV sodium pentobarbital. Descending thoracic aortae were isolated and placed immediately in a cold physiologic salt solution (Kreb's) (mM): NaCl, 118; CKl, 4.7; CaCl2, 2.5; MgSO4, 1.2; KH2PO4, 1.2; NaHCO3, 12.5; and D-glucose, 11.0. The vessels were cleaned of adherent connective tissue, and the endothelium removed by gentle rubbing with a cotton tipped applicator inserted into the lumen, after which the vessel was cut into 5 mm rings. The rings were mounted on stirrups and connected to transducers (model FT03C Grass Instruments, Quincy, Mass.) by which changes in isometric tension were recorded.
Samples were added to a standard bioassay in which vessel rings were suspended in glass chambers containing seven mil of oxygenated Kreb's buffer, in a standard bioassay (Cook et al., Am. J. Physiol. 28:H804 (1989), herein incorporated by reference). Sustained contractions, to 2 gm tension, were induced with 1 μM epinephrine, after which the effects of t-PA and S—NO-t-PA were tested. In certain experiments the guanylate cyclase inhibitor, methylene blue, was preincubated with vessel rings for 15 minutes prior to initiation of contractions.
The vasodilatory actions of S-nitroso-BSA were examined in a standard bioassay containing endothelium-denuded rabbit aortic strips in Kreb's buffer, pH 7.5, at 37°, as described in Example 6.
In vessel experiments, relaxations to S—NO-BSA are expressed as-percent of tone induced by 1.0 μM norepinephrine.

PAI-1 = target: T1, PAI-1 (Homo sapiens, UniProt P05121); assay: Inhibition of t-PA and S—NO-t-PA enzymatic activity by PAI-1 (S2288); type: biochemical; settings: direct chromogenic assay with S2288; n=3
T1 construct: gift of Dr. Douglas E. Vaughan
Procedure: The amidolytic activities of t-PA and its S-nitrosylated derivative were measured using the relatively specific chromogenic substrate, S2288. Substrate hydrolysis was measured spectrophotometrically at 405 nm with a Gilford Response UV/Vis Spectrophotometer (CIBA-Corning, Oberlin, Ohio). Activity was measured at 25° C. in TBS using substrate concentrations varying from 0.1–2.0 mM and t-PA at a concentration of 100 nM. Kinetic parameters were determined from initial rates by double reciprocal plot analysis. The assessment of inhibition of t-PA and S—NO-t-PA enzymatic activity by PAI-1 was made at an enzyme concentration of 10 nM and a molar ratio of t-PA to active PAI-1 of 1.0. The degree of inhibition was determined relative to the initial rates in the absence of the inhibitor.

glu-plasminogen = target: T2, glu-plasminogen (Homo sapiens, UniProt P00747); assay: Coupled enzyme assay: activation of glu-plasminogen (S2251), with and without fibrinogen; type: biochemical; settings: for Km / kcat: GLU-plasminogen (S2251) activation
T2 construct: Glu-plasminogen was purified from fresh frozen plasma; from tissue; host or cells: fresh frozen plasma (lysine-Sepharose, then benzamidine-Sepharose)
Procedure: Glu-plasminogen was purified from fresh frozen plasma thawed at 37° C. using a modification of the method of Deutsch and Mertz (Deutsch et al., Science 170:1095–1096 (1970), herein incorporated by reference). Plasma was passed over a lysine-Sepharose column and the column washed with 0.3 M sodium phosphate, pH 7.4, 3 mM EDTA. Plasminogen was eluted from the column with 0.2 M epsilon-aminocaproic acid, 3 mM EDTA, pH 7.4 Contaminant plasmin was removed by passing the eluted column over benzamidine sepharose 2B. The plasminogen obtained was subsequently dialyzed before use against 10 mM sodium phosphate, pH 7.4, 0.15 M NaCl.
In the coupled enzyme assay, t-PA and S—NO-t-PA activities were assayed using the […] S2251. In selected experiments, fibrinogen stimulation of enzymatic activity was assessed at a fibrinogen concentrations of 1 mg./ml. Substrate hydrolysis was measured spectrophotometrically with a Dynatech MR 5000 Card Reader (Dynatech, Chantilly, Va.) in TBS, pH 7.4, at 25° C. Initial reaction velocity was determined from the slope of the plot of absorbance (at 405 nm)/time vs. time (Randy, M. Biochim. Biophysica Acta 704:461–469 (1982)) using glu-plasminogen concentrations ranging from 0.1–10 μM at an S2251 concentrations of 0.8 mM. Kinetic parameters were determined from initial rates by double reciprocal plot analysis.

T2 sequence (P00747 20-810 limits assumed): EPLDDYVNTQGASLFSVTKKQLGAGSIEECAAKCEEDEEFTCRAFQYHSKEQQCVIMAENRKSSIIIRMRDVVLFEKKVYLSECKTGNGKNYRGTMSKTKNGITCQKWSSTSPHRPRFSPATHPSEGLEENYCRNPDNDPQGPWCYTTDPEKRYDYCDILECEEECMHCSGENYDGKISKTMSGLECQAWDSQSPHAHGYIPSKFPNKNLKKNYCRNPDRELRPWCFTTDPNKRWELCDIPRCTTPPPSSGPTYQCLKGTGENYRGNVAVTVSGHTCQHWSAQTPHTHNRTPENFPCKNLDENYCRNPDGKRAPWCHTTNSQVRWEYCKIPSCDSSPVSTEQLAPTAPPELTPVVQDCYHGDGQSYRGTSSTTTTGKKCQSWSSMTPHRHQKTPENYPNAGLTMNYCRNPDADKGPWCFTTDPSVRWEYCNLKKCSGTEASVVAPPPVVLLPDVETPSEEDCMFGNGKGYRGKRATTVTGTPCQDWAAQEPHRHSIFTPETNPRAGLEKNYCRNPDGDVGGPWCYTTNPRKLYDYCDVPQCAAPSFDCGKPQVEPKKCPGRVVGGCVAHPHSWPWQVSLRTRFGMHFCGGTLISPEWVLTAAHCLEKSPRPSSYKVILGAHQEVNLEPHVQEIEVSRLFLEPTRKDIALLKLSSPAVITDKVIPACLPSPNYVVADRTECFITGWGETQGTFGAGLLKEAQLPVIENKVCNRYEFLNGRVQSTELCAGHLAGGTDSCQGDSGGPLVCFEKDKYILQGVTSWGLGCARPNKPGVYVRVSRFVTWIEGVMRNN
T1 sequence (P05121 24-402, species assumed): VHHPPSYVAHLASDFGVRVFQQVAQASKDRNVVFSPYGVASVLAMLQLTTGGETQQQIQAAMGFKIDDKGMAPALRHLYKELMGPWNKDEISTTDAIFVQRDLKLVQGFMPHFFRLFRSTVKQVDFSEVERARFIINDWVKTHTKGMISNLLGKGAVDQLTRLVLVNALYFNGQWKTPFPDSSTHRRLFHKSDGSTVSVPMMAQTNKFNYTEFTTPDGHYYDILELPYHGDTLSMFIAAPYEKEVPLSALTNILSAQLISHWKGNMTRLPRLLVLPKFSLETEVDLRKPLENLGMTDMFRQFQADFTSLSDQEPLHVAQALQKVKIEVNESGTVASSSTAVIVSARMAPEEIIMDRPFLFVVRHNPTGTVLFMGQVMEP

| Substance | increase in intracellular cyclic GMP above basal levels (gel-filtered platelets [1]; 9 μM, 180 seconds, basal in the presence of t-PA) | elevation in platelet cGMP after preincubation with methylene blue (gel-filtered platelets [1]; methylene blue 10 μM for ten minutes) | effect on platelet aggregation, synthesized with authentic EDRF (gel-filtered platelets [2]; 333 nM, preincubated ten minutes) | inhibition in rate and extent of aggregation (gel-filtered platelets [2]; 1.4 μM, mean ±S.D., n=4) | % Relaxation [3] | relaxations in presence of guanylate cyclase inhibitor methylene blue ([3]; methylene blue preincubated 15 minutes) | inhibition of hydrolytic activity by PAI-1 (PAI-1) | fibrinogen stimulation greater than t-PA (glu-plasminogen; 0.1 μM plasminogen, fibrinogen 1 mg./ml) | Km (glu-plasminogen) | kcat (glu-plasminogen) | degree of fibrinogen stimulation compared with wild type t-PA (glu-plasminogen; physiologic (1 μM) plasminogen) | catalytic efficiency greater than that of native t-PA (glu-plasminogen; plasminogen activation) |
| --- | --- | --- | --- | --- | --- | --- | --- | --- | --- | --- | --- | --- |
| S—NO-t-PA: derived from the nitrosylation of tissue-type plasminogen activator (t-PA) | 85% | entirely prevented | inhibition of platelet aggregation | 50±16% | 20 ± 7 % | attenuated | equally effective | 3.5 fold | 3.8 µM | 0.262 s⁻¹ | equivalent | 23% |
| t-PA: tissue-type plasminogen activator, provided by Genentech | – | – | – | – | 2.5 ± 4% | – | equally effective | – | 3.5 µM | 0.200 s⁻¹ | – | – |
